For experiment [1], the target named is S. cerevisiae ribosomes with L10 R7Q (S. cerevisiae) (UniProt P41805).
The target of experiment [2] is S. cerevisiae ribosomes with L10 Y9C (S. cerevisiae) (UniProt P41805).
The target of experiment [3] is S. cerevisiae ribosomes with L10 R7P (S. cerevisiae) (UniProt P41805).
In experiment [4] the target is wild-type S. cerevisiae ribosomes (wild-type L10) (S. cerevisiae) (UniProt P41805).
Experiment [5] concerns the target S. cerevisiae ribosomes with L10 Y9N (S. cerevisiae) (UniProt P41805).
In experiment [6] the target is S. cerevisiae ribosomes with L10 Y11C (S. cerevisiae) (UniProt P41805).
The target of experiment [7] is S. cerevisiae ribosomes with L10 R7L (S. cerevisiae) (UniProt P41805).

Here are results for one substance from article PMC2577338.

As a reminder, the Kd is a measure of binding affinity in units of concentration. Read a low Kd as a tighter complex. Consider “eEF2 (eukaryotic elongation factor 2) (from UniProt P32324 1-842) (natural protein)”, for which the Kd in experiment [1] stood at 6.1 nM; in experiment [2], 5.2 nM; in experiment [3], 6.6 nM; in experiment [4], 10.8 nM; in experiment [5], 9.7 nM; in experiment [6] it was 16.6 nM. The same substance displayed a Kd in experiment [7] of 10.7 nM.
